The test system of series [1] is Recombinant Human CYP19A1 Allozymes. As to the kind of experiment: CYP19A1 enzyme activity of recombinant allozymes (3H2O release from [1β3H]androst-4-ene-3,17-dione, COS-1 microsomes). The series is classed as biochemical. The conditions noted are these: 20 nM androstenedione substrate, corrected for transfection efficiency, 6 independent transfections.
The test system is the same in series [2]. As to the kind of experiment: Substrate kinetics: apparent Km of recombinant CYP19A1 allozymes with androstenedione. Particulars: androstenedione as substrate; COS-1 microsomes. The series is classed as biochemical.

B1: Cys264: "a CYP19A1 polypeptide (Arg264Cys) having a cysteine at amino acid residue 264" (protein, UniProt P11511 1-503, looked up, variant R264C)
Aromatase: MVLEMLNPIHYNITSIVPEAMPAATMPVLLLTGLFLLVWNYEGTSSIPGPGYCMGIGPLISHGRFLWMGIGSACNYYNRVYGEFMRVWISGEETLIISKSSSMFHIMKHNHYSSRFGSKLGLQCIGMHEKGIIFNNNPELWKTTRPFFMKALSGPGLVRMVTVCAESLKTHLDRLEEVTNESGYVDVLTLLRRVMLDTSNTLFLRIPLDESAIVVKIQGYFDAWQALLIKPDIFFKISWLYKKYEKSVKDLKDAIEVLIAEKRCRISTEEKLEECMDFATELILAEKRGDLTRENVNQCILEMLIAAPDTMSVSLFFMLFLIAKHPNVEEAIIKEIQTVIGERDIKIDDIQKLKVMENFIYESMRYQPVVDLVMRKALEDDVIDGYPVKKGTNIILNIGRMHRLEFFPKPNEFTLENFAKNVPYRYFQPFGFGPRGCAGKYIAMVMMKAILVTLLRRFHVKTLQGQCVESIQKIHDLSLHPDETKNMLEMIFTPRNSDRCLEH
Regarding B1, in series [1], the “% WT activity” value worked out at 72%.

B2: Thr364: "a CYP19A1 polypeptide having a threonine at amino acid residue 364. This polypeptide (Met(364)Thr) would be considered an allozyme" (protein, UniProt P11511 1-503, looked up, variant M364T)
Aromatase: MVLEMLNPIHYNITSIVPEAMPAATMPVLLLTGLFLLVWNYEGTSSIPGPGYCMGIGPLISHGRFLWMGIGSACNYYNRVYGEFMRVWISGEETLIISKSSSMFHIMKHNHYSSRFGSKLGLQCIGMHEKGIIFNNNPELWKTTRPFFMKALSGPGLVRMVTVCAESLKTHLDRLEEVTNESGYVDVLTLLRRVMLDTSNTLFLRIPLDESAIVVKIQGYFDAWQALLIKPDIFFKISWLYKKYEKSVKDLKDAIEVLIAEKRRRISTEEKLEECMDFATELILAEKRGDLTRENVNQCILEMLIAAPDTMSVSLFFMLFLIAKHPNVEEAIIKEIQTVIGERDIKIDDIQKLKVMENFIYESTRYQPVVDLVMRKALEDDVIDGYPVKKGTNIILNIGRMHRLEFFPKPNEFTLENFAKNVPYRYFQPFGFGPRGCAGKYIAMVMMKAILVTLLRRFHVKTLQGQCVESIQKIHDLSLHPDETKNMLEMIFTPRNSDRCLEH
In the case of B2, the “Apparent Km” value in series [2] was “elevated”.
